# Measured values published in US20190241669A1 (published 2019).
# Legend:
# [1] = target: T1, cynomolgus monkey BCMA (cynomolgus monkey, UniProt A0A2K5UD97 1-53); assay: SPR, IgG on chip, cyBCMA analyte
# T1 construct: Soluble analyte in SPR; construct not described; also called cyBCMA; Cyno BCMA
# [2] = target: Human BCMA (human) (UniProt Q02223); assay: SPR, IgG on chip, huBCMA analyte
# T1 sequence (A0A2K5UD97 entry or part of it): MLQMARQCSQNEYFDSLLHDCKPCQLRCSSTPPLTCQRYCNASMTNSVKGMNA
binder,measurement,setting,value
"COMBO_Rd4_6nM_C22 (antibody, V domains shown, IgG) VH: EVQLLESGGGLVQPGGSLRLSCAASGFTFSSYAMNWVRQAPGKGLEWVSACLDSGGSTYYADSVKGRFTISRDNSKNTLYLQMNSLRAEDTAVYYCARYWPMDSWGQGTLVTVSS VL: EIVLTQSPGTLSLSPGERATLSCRASQSVSSSYLAWYQQKPGQAPRLLMYDASIRATGIPDRFSGSGSGTDFTLTISRLEPEDFAVYYCQQYQGWPLTFGQGTKVEIK",Kd,[1],972 pM
same,koff,[1],0.00165 s⁻¹
same,kon,[1],1.7e+06 M⁻¹ s⁻¹
same,Kd,[2],256 pM
same,koff,[2],0.000775 s⁻¹
same,kon,[2],3.03e+06 M⁻¹ s⁻¹
"COMBO_Rd4_0.6nM_C30 (antibody, V domains shown, IgG) VH: EVQLLESGGGLVQPGGSLRLSCAASGFTFSSYPMSWVRQAPGKGLEWVSAIGGSGGSTYYADSVKGRFTISRDNSKNTLYLQMNSLRAEDTAVYYCARYWPMDSWGQGTLVTVSS VL: EIVLTQSPGTLSLSPGERATLSCRASQSVSYMYLAWYQQKPGQAPRLLIYDASIRATGIPDRFSGSGSGTDFTLTISRLEPEDFAVYYCQQYKSWPLTFGQGTKVEIK",Kd,[1],481 pM
same,koff,[1],0.000808 s⁻¹
same,kon,[1],1.68e+06 M⁻¹ s⁻¹
same,Kd,[2],65 pM
same,koff,[2],0.000282 s⁻¹
same,kon,[2],4.35e+06 M⁻¹ s⁻¹
"COMBO_Rd4_0.6nM_C23 (antibody, V domains shown, IgG) VH: EVQLLESGGGLVQPGGSLRLSCAASGFTFSSYPMSWVRQAPGKGLEWVSALFGSGGSTYYADSVKGRFTISRDNSKNTLYLQMNSLRAEDTAVYYCARYWPMDSWGQGTLVTVSS VL: EIVLTQSPGTLSLSPGERATLSCRPRQSVSSSYLAWYQQKPGQAPRLLMYDASIRATGIPDRFSGSGSGTDFTLTISRLEPEDFAVYYCQQYQDWPLTFGQGTKVEIK",Kd,[1],189 pM
same,koff,[1],0.000531 s⁻¹
same,kon,[1],2.81e+06 M⁻¹ s⁻¹
same,Kd,[2],28 pM
same,koff,[2],0.00021 s⁻¹
same,kon,[2],7.39e+06 M⁻¹ s⁻¹
"COMBO_Rd4_0.6nM_C09 (antibody, V domains shown, IgG) VH: EVQLLESGGGLVQPGGSLRLSCAASGFTFSSYPMSWVRQAPGKGLEWVSAIGGSGGSLPYADSVKGRFTISRDNSKNTLYLQMNSLRAEDTAVYYCARYWPMDIWGQGTLVTVSS VL: EIVLTQSPGTLSLSPGERATLSCRASQSVSSTYLAWYQQKPGQAPRLLMYDASIRATGIPDRFSGSGSGTDFTLTISRLEPEDFAVYYCQQYQEWPLTFGQGTKVEIK",Kd,[1],92 pM
same,koff,[1],0.000346 s⁻¹
same,kon,[1],3.77e+06 M⁻¹ s⁻¹
same,Kd,[2],31 pM
same,koff,[2],0.000319 s⁻¹
same,kon,[2],1.04e+07 M⁻¹ s⁻¹
"COMBO_Rd4_0.6nM_C11 (antibody, V domains shown, IgG) VH: EVQLLESGGGLVQPGGSLRLSCAASGFTFSSYPMSWVRQAPGKGLEWVSAALGSGGSTYYADSVKGRFTISRDNSKNTLYLQMNSLRAEDTAVYYCARYWPMSLWGQGTLVTVSS VL: EIVLTQSPGTLSLSPGERATLSCRASQSVSVRYLAWYQQKPGQAPRLLMYDASIRATGIPDRFSGSGSGTDFTLTISRLEPEDFAVYYCQQYGSWPITFGQGTKVEIK",Kd,[1],1920 pM
same,koff,[1],0.00423 s⁻¹
same,kon,[1],2.2e+06 M⁻¹ s⁻¹
same,Kd,[2],207 pM
same,koff,[2],0.00106 s⁻¹
same,kon,[2],5.11e+06 M⁻¹ s⁻¹
"COMBO_Rd4_0.6nM_C17 (antibody, V domains shown, IgG) VH: EVQLLESGGGLVQPGGSLRLSCAASGFTFSSYPMSWVRQAPGKGLEWVSAIGGSGGSLPYADSVKGRFTISRDNSKNTLYLQMNSLRAEDTAVYYCARYWPMDIWGQGTLVTVSS VL: EIVLTQSPGTLSLSPGERATLSCRASQGISSTYLAWYQQKPGQAPRLLMYDASIRATGIPDRFSGSGSGTDFTLTISRLEPEDFAVYYCQQYAYWPLTFGQGTKVEIK",Kd,[1],330 pM
same,koff,[1],0.00101 s⁻¹
same,kon,[1],3.06e+06 M⁻¹ s⁻¹
same,Kd,[2],92 pM
same,koff,[2],0.000801 s⁻¹
same,kon,[2],8.68e+06 M⁻¹ s⁻¹
"COMBO_Rd4_0.6nM_C14 (antibody, V domains shown, IgG) VH: EVQLLESGGGLVQPGGSLRLSCAASGFTFSSYPMSWVRQAPGKGLEWVSAIGGSGGSLPYADSVKGRFTISRDNSKNTLYLQMNSLRAEDTAVYYCARYWPMDIWGQGTLVTVSS VL: EIVLTQSPGTLSLSPGERATLSCRASQSVSALYLAWYQQKPGQAPRLLMYDASIRATGIPDRFSGSGSGTDFTLTISRLEPEDFAVYYCQQYYGWPLTFGQGTKVEIK",Kd,[1],185 pM
same,koff,[1],0.000645 s⁻¹
same,kon,[1],3.48e+06 M⁻¹ s⁻¹
same,Kd,[2],38 pM
same,koff,[2],0.000328 s⁻¹
same,kon,[2],8.66e+06 M⁻¹ s⁻¹
"COMBO_Rd4_6nM_C10 (antibody, V domains shown, IgG) VH: EVQLLESGGGLVQPGGSLRLSCAASGFTFSSYPMSWVRQAPGKGLEWVSAIGGSGGSIHYADSVKGRFTISRDNSKNTLYLQMNSLRAEDTAVYYCARYWPMDSWGQGTLVTVSS VL: EIVLTQSPGTLSLSPGERATLSCRASQSVSSSYWGWYQQKPGQAPRLLMYDASIRATGIPDRFSGSGSGTDFTLTISRLEPEDFAVYYCQQYQCWPLTFGQGTKVEIK",Kd,[1],105 pM
same,koff,[1],0.00016 s⁻¹
same,kon,[1],1.52e+06 M⁻¹ s⁻¹
same,Kd,[2],18 pM
same,koff,[2],9.72e-05 s⁻¹
same,kon,[2],5.47e+06 M⁻¹ s⁻¹
"COMBO_Rd4_6nM_C07 (antibody, V domains shown, IgG) VH: EVQLLESGGGLVQPGGSLRLSCAASGFTFSSYPMSWVRQAPGKGLEWVSAIGGSGGSLPYADSVKGRFTISRDNSKNTLYLQMNSLRAEDTAVYYCARYWPMADWGQGTLVTVSS VL: EIVLTQSPGTLSLSPGERATLSCRASQPISSSYLAWYQQKPGQAPRLLMYDASIRATGIPDRFSGSGSGTDFTLTISRLEPEDFAVYYCQQYQGWPLTFGQGTKVEIK",Kd,[1],237 pM
same,koff,[1],0.000934 s⁻¹
same,kon,[1],3.94e+06 M⁻¹ s⁻¹
same,Kd,[2],35 pM
same,koff,[2],0.000371 s⁻¹
same,kon,[2],1.05e+07 M⁻¹ s⁻¹
